The source of these data is the nanobody polyreactivity screen of Harvey et al. (2022).

The series can be described thus: yeast display, Sf9 membrane polyspecificity reagent, FACS + sequencing; frameworks hold sequencing errors. An outline of the steps: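 Polyreactivity labels are assigned by the sorting gate from which each nanobody was recovered. The gates were low and high (top ~1%), set on anti-HA fluorescence for expression and streptavidin fluorescence for reagent binding. Before sorting, galactose-induced (36–48 hours) yeast display cells were stained for 1 hour at 4 °C with 10% biotinylated, detergent-solubilized Sf9 membrane reagent.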
Regarding “QVQLVESGGGLVQAGGSLRLSCAASGYIFLGNAMGWYRQAPGKERELVAAISRSGGSTYYADSVKGRFTISRDNAKNTVYLQMNSLKPEATAVYYCAAGTRIYNSWIRFDYWGQGTQVTVSS”, the “polyreactivity (PSR sort gate)” value is given as “high polyreactivity”. The value for “QVQLVESGGGLVQAGGSLRLSCAASGYIFLTNAMGWYRPAPGKERELVAAISVSGGRTYYADSVKGRFTISRDNAKNTVYLQMNSLKPEDTAVYYCNTLLTYGYDYWGQGTQVTVSS” was “low polyreactivity”; that for “QVQLVESGGGLVQAGGSLRLSCAASGYIFLTNAMGWYRQAPGKEREWVAAISVSGGRTYYADSVKGRFTISRDNAKNTVYLQMNSLKPEDTAVYYCNTLLTYGYDYWGQGTQVTVSS” was “low polyreactivity”; that for “QVQLVESGGGLVQAGGSLRLSCAASGYIFNYYAMGWYRQAPGKERELVAAISWDGTDTYYADSVKGRFTISRDNAKNTVYLQMNSLKPEDTAVYYCNADYDVYGWRNYWGQGTQVTVSS” was “low polyreactivity”. As for “QVQLVESGGGLVQAGGSLRLSCAASGYIFPKNAMGGYRQAPGKERELVAAITGSGGSTYYADSVKGRFTISRDNAKNTVYLQMISLKPEDTAVYYCAKRSWFEYDYWGQGTQVTVSS”, the “polyreactivity (PSR sort gate)” value is “low polyreactivity”. “QVQLVESGGGLVQAGGSLRLSCAASGYIFPTYGMGWYRQAPGKERELVADITNNAGSTYYADSVKGRFTISRDKAKNTVYLQMKSLKPEDTEVYYCAADAYWPYWPYSYDYWGHGTQVTVSS”: the “polyreactivity (PSR sort gate)” value is listed as “low polyreactivity”. The value for “QVQLVESGGGLVQAGGSLRLSCAASGYIFQPYAMGWYRQAPGKERELVAAIDWTGGRTYYADSVKGRFTISRDNAKNTVYLQMNSLKPEVTAVYYCNADFGYWWDGRRYDYWGQGTQVTVSS” was “low polyreactivity”; that for “QVQLVESGGGLVQAGGSLRLSCAASGYIFRFNAMGWYRQAPGKERELVAVITKSGGSTYYADSVKGRFTISRDNAKNTVYLQMNSLKPEDTAVYDCNADRFYIDYTNTYDSIRDYWGQGTQVTVSS” was “low polyreactivity”; that for “QVQLVESGGGLVQAGGSLRLSCAASGYIFRGYVMGWYRQAPGKERELVAGISRSGSSTYYADSVKGRFTISRDNAKNTVYLQMNSLKPEDTAVYYCAAVRSGIEYGYWGQGTQVTVSS” was “high polyreactivity”.

For “QVQLVESGGGLVQAGGSLRLSCAASGYIFRHYAMGWYRQAPGKERELVAAISGRGGSTYYADSVKGRFTISRDNAKNTVYLQMNSLKPEDTAVYYCAKDRKAVGDFYYWGQGTQVTVSS”, the “polyreactivity (PSR sort gate)” value was “high polyreactivity”.

For “QVQLVESGGGLVQAGGSLRLSCAASGYIFRIYAMGWYRQAPGKERELVARISSGGGTNYADSVKGRFTISRDNAKNTVYLQMNSLKPEDTAVYYCNAGYGYQRGGVFFYRMGYWGQGTQVTVSS”, the “polyreactivity (PSR sort gate)” value was “high polyreactivity”.

As to “QVQLVESGGGLVQAGGSLRLSCAASGYIFRKYAMGWYRQAPGKERELVADISSSGGSTYYADSVKGRFTISRDNAKNTVYLQMNSLKPEDTAVYYCAKDRKSSRRITRMDYWGQGTQVTVSS”, the “polyreactivity (PSR sort gate)” value is “high polyreactivity”. Consider “QVQLVESGGGLVQAGGSLRLSCAASGYIFRYNAMGWYRQAPGTEREFVASINWSGGRTYYADSVKGRFTLSRDNAKNTVYLQMNSLKPEDTAVYYCAAVYYVSLVYGYYVEGSYEYYYWGQGTQVTVSS”, for which the “polyreactivity (PSR sort gate)” value is listed as “high polyreactivity”. Turning to “QVQLVESGGGLVQAGGSLRLSCAASGYIFSGYAMGWYRQAPGKERELVAAISSNGGSTYYADSVKGRFTISRDNAKNTVYLQMISLKPEDTAVYYCNRGLAARVGRGDYWGQGTQVTVSS”, the “polyreactivity (PSR sort gate)” value was “low polyreactivity”. Take “QVQLVESGGGLVQAGGSLRLSCAASGYIFSRYAMGWYRPAPGKERELVAAITRSGTRTYYADSVKGRFTISRDNAKNTVYLQMNSLKPEDTAVYYCAKQYLYSSGFDYWGQGTQVTVSS”: the “polyreactivity (PSR sort gate)” value is “high polyreactivity”. On to “QVQLVESGGGLVQAGGSLRLSCAASGYIFSYYAMGWYRQAPGKEREFVAAIRWRGGSTYYADSVKGRFTISRDYAKNTVYLQMNSLKPEDTEVYYCAAGPATSYYWGQGTQVTVSS”, for which the “polyreactivity (PSR sort gate)” value is on record as “high polyreactivity”.
